B1: scFv; the commonest letter at each place (parent)
chain 1: EVKLDETGGGLVQPGRPMKLSCVASGFTFSDYWMNWVRQSPEKGLEWVAQIRNKPYNYETYYSDSVKGRFTISRDDSKSSVYLQMNNLRVEDMGIYYCTGSYYGMDYWGQGTSVTVS
chain 2: DVVMTQTPLSLPVSLGDQASISCRSSQSLVHSNGNTYLRWYLQKPGQSPKVLIYKVSNRFSGVPDRFSGSGSGTDFTLKISRVEAEDLGVYFCSQSTHVPWTFGGGTKLEIK

Experiments:
fluorescein = variants of: B1; assay: Kd (Tite-Seq); conditions: with fluorescein; format: scFv 4-4-20, heavy + light
[1] = variants of: B1; assay: yeast surface expression (ratio to wild type); higher = more expressed; conditions: format: scFv 4-4-20, heavy + light

Variant	Kd (fluorescein) [µM]	yeast surface expression [1]
chain 1 EVKLDETGGGLVQPGRPMKLSCVASGFTFSDYWMNWVRQSPEKGLEWVAQIRNKPYNYETYYSDSVKGRFTISRDDSKSSVYLQMNNLRVEDMGIYYCTGSYYKMDYWGQGTSVTVS chain 2 DVVMTQTPLSLPVSLGDQASISCRSSQSLVHSNGNTYLRWYLQKPGQSPKVLIYKVSNRFSGVPDRFSGSGSGTDFTLKISRVEAEDLGVYFCSQSTHVPWTFGGGTKLEIK [chain 1 G104K]	≥ 10	0.557
chain 1 EVKLDETGGGLVQPGRPMKLSCVASGFTFSDYWMNWVRQSPEKGLEWVAQIRNKPYNYETYYSDSVKGRFTISRDDSKSSVYLQMNNLRVEDMGIYYCTMSYYGMDYWWQGTSVTVS chain 2 DVVMTQTPLSLPVSLGDQASISCRSSQSLVHSNGNTYLRWYLQKPGQSPKVLIYKVSNRFSGVPDRFSGSGSGTDFTLKISRVEAEDLGVYFCSQSTHVPWTFGGGTKLEIK [chain 1 G100M G109W]	≥ 10	0.185
chain 1 EVKLDETGGGLVQPGRPMKLSCVASGFTFSDYWMNWVRQSPEKGLEWVAQIRNKPYNYETYYSDSVKGRFTISRDDSKSSVYLQMNNLRVEDMGIYYCTGSDLGMDYWPQGTSVTVS chain 2 DVVMTQTPLSLPVSLGDQASISCRSSQSLVHSNGNTYLRWYLQKPGQSPKVLIYKVSNRFSGVPDRFSGSGSGTDFTLKISRVEAEDLGVYFCSQSTHVPWTFGGGTKLEIK [chain 1 Y102D Y103L G109P]	≥ 10	0.465
chain 1 EVKLDETGGGLVQPGRPMKLSCVASGFPFSDYWMNWSRQSPEKGLEWVAQIRNKPYNYETYYSDSVKGRFTISRDDSKSSVYLQMNNLRVEDMGIYYCTGSYYGMDYWGQGTSVTVS chain 2 DVVMTQTPLSLPVSLGDQASISCRSSQSLVHSNGNTYLRWYLQKPGQSPKVLIYKVSNRFSGVPDRFSGSGSGTDFTLKISRVEAEDLGVYFCSQSTHVPWTFGGGTKLEIK [chain 1 T28P V37S]	0.000939	0.884
chain 1 EVKLDETGGGLVQPGRPMKLSCVASGFTFSDYWMNWVRQSPEKGLEWVAQIRNKPYNYETYYSDSVKGRFTISRDDSKSSVYLQMNNLRVEDMGIYYCTGSYYGDCYWGQGTSVTVS chain 2 DVVMTQTPLSLPVSLGDQASISCRSSQSLVHSNGNTYLRWYLQKPGQSPKVLIYKVSNRFSGVPDRFSGSGSGTDFTLKISRVEAEDLGVYFCSQSTHVPWTFGGGTKLEIK [chain 1 M105D D106C]	≥ 10	0.616
chain 1 EVKLDETGGGLVQPGRPMKLSCVASGFTFSDYWMNWVRQSPEKGLEWVAQIRNKPYNYETYYSDSVKGRFTISRDDSKSSVYLQMNNLRVEDMGIYYCTGSYTGMYYWGQGTSVTVS chain 2 DVVMTQTPLSLPVSLGDQASISCRSSQSLVHSNGNTYLRWYLQKPGQSPKVLIYKVSNRFSGVPDRFSGSGSGTDFTLKISRVEAEDLGVYFCSQSTHVPWTFGGGTKLEIK [chain 1 Y103T D106Y]	≥ 10	0.37
chain 1 EVKLDETGGGLVQPGRPMKLSCVASGFTFSDYWMNWVRQSPEKGLEWVAQIRNKPYNYETYYSDSVKGRFTISRDDSKSSVYLQMNNLRVEDMGIYYCTGVVYGMDYWGQGTSVTVS chain 2 DVVMTQTPLSLPVSLGDQASISCRSSQSLVHSNGNTYLRWYLQKPGQSPKVLIYKVSNRFSGVPDRFSGSGSGTDFTLKISRVEAEDLGVYFCSQSTHVPWTFGGGTKLEIK [chain 1 S101V Y102V]	≥ 10	0.432
chain 1 EVKLDETGGGLVQPGRPMKLSCVASGFTFTDYFMNWVRQSPEKGLEWVAQIRNKPYNYETYYSDSVKGRFTISRDDSKSSVYLQMNNLRVEDMGIYYCTGSYYGMDYWGQGTSVTVS chain 2 DVVMTQTPLSLPVSLGDQASISCRSSQSLVHSNGNTYLRWYLQKPGQSPKVLIYKVSNRFSGVPDRFSGSGSGTDFTLKISRVEAEDLGVYFCSQSTHVPWTFGGGTKLEIK [chain 1 S30T W33F]	0.0534	0.909
chain 1 EVKLDETGGGLVQPGRPMKLSCVASGFTFSDYWMNWVRQSPEKGLEWVAQIRNKPYNYETYYSDSVKGRFTISRDDSKSSVYLQMNNLRVEDMGIYYCTGEQYGMDYCGQGTSVTVS chain 2 DVVMTQTPLSLPVSLGDQASISCRSSQSLVHSNGNTYLRWYLQKPGQSPKVLIYKVSNRFSGVPDRFSGSGSGTDFTLKISRVEAEDLGVYFCSQSTHVPWTFGGGTKLEIK [chain 1 S101E Y102Q W108C]	≥ 10	0.541
chain 1 EVKLDETGGGLVQPGRPMKLSCVASGFMFSDYWCNWVRQSPEKGLEWVAQIRNKPYNYETYYSDSVKGRFTISRDDSKSSVYLQMNNLRVEDMGIYYCTGSYYGMDYWGQGTSVTVS chain 2 DVVMTQTPLSLPVSLGDQASISCRSSQSLVHSNGNTYLRWYLQKPGQSPKVLIYKVSNRFSGVPDRFSGSGSGTDFTLKISRVEAEDLGVYFCSQSTHVPWTFGGGTKLEIK [chain 1 T28M M34C]	0.0353	0.719
chain 1 EVKLDETGGGLVQPGRPMKLSCVASGFTFHSYWMPWVRQSPEKGLEWVAQIRNKPYNYETYYSDSVKGRFTISRDDSKSSVYLQMNNLRVEDMGIYYCTGSYYGMDYWGQGTSVTVS chain 2 DVVMTQTPLSLPVSLGDQASISCRSSQSLVHSNGNTYLRWYLQKPGQSPKVLIYKVSNRFSGVPDRFSGSGSGTDFTLKISRVEAEDLGVYFCSQSTHVPWTFGGGTKLEIK [chain 1 S30H D31S N35P]	≥ 10	0.391
chain 1 EVKLDETGGGLVQPGRPMKLSCVASGFTFSDYWKNWVRQSPEKGLEWVAQIRNKPYNYETYYSDSVKGRFTISRDDSKSSVYLQMNNLRVEDMGIYYCTGSYYGMDYWGQGTSVTVS chain 2 DVVMTQTPLSLPVSLGDQASISCRSSQSLVHSNGNTYLRWYLQKPGQSPKVLIYKVSNRFSGVPDRFSGSGSGTDFTLKISRVEAEDLGVYFCSQSTHVPWTFGGGTKLEIK [chain 1 M34K]	0.694	0.913

Source: the FLAb antibody collection (doi:10.7554/elife.23156)
